Measurements reported in patent US20250197448A1 (UNIVERSITY OF ROCHESTER, published 2025).
Starred links: 1 amine or outer side, 2 acyl side, 3 side chain; linkers in the order of their positions; H or OH if unused. Positions of bridges follow the written chain, without caps; N, C: chain ends. Non-standard residues stand in square brackets, D forms with d. No end group written: not given here. O2beY = O-(2-bromoethyl)-tyrosine (p-2beF), reacts with Cys to form a thioether, O=C([C@H](Cc1ccc(OCCBr)cc1)N[*:1])[*:2]; pCaaF = p-(2-chloroacetamido)-phenylalanine, O=C(CCl)Nc1ccc(C[C@H](N[*:1])C(=O)[*:2])cc1

Experiments:
[1] = biological target: T1, integrin αvβ3 on the surface of MDA-MB-231 breast cancer cells (human, UniProt P06756 31-1048; P05106 27-788); test: flow cytometry on MDA-MB-231 cells, FITC anti-IgG1 Fc secondary
T1 construct: whole, on cells; also called integrin receptors on the cells
Method: Flow Cytometry Analysis. […] When confluent, media was aspirated, cells were washed once with 1×DPBS (no calcium, no magnesium) (Gibco). Adherent cells were detached from the petri dish with 1 mL of accutase (Gibco) pre-warmed to 37° C., followed by incubated for 5 min at 37° C. Cells were spun down using centrifugation. Supernatant was removed and cells were washed three times with staining buffer (1×PBS with 0.5% BSA). Cells were resuspended in Eppendorf tubes in 100 μL PBS at a concentration of […]. Cyclopeptibodies or Human anti-PD-L1 antibody (1 μg) (R&D Systems, MAB10355) in staining buffer were then added to the tubes with a concentration of 1.5 μM in 200 μL. Eppendorf tubes were then placed on the platform shaker for gently shaking for 1 hour at room temperature. After 1 hour, cells were spun down using centrifugation, then supernatant was removed. After washing three times, cells were resuspended in 200 μL of Fluorescein (FITC) AffiniPure Goat Anti-Human IgG with working concentration of 30 μg/mL (Jackson ImmunoResearch, 109-095-098), incubated in the dark for 30 min at room temperature. […] Then cells were analyzed on a BD FACS Accuri C6⁺ using a filter of 533/30. […]
The cyclopeptibody treated cells were then analyzed by flow cytometry using a procedure similar to that described for the PD-L1-targeting cyclopeptibodies in Example 9.

[2] = biological target: T2, Sonic Hedgehog (Shh) (human, UniProt Q15465 24-197, limits assumed); test: plate binding assay: immobilised Shh, FLAG-tagged binder titrated, HRP anti-FLAG detection
[3] = biological target: T2, Sonic Hedgehog (Shh); test: plate binding assay with immobilised Shh
Method: After washing (3×150 μL of PBS with 0.05% Tween-20), each well was incubated with 100 μL of purified FLAG-tagged cyclopeptibody at varying concentrations for 1 hour at room temperature. After washing three times with wash buffer, each well was incubated with 100 μL of 1:2500 dilution of HRP-conjugate mouse anti-FLAG polyclonal antibody (Sigma-Aldrich) for 1 hour at room temperature. After washing three times with wash buffer, 100 μL of 2.2 mM o-phenylenediamine dihydrochloride, 4.2 mM urea hydrogen peroxide, 100 mM dibasic sodium phosphate, and 50 mM sodium citrate, pH 5.0, were added to each well, followed by measurement of the absorbance at 450 nm after 10-20 min using a Tecan Infinite 1000 plate reader. Equilibrium dissociation constants (Kp) were determined by fitting the dose-response curves to a 1:1 binding isotherm equation via nonlinear regression. using SigmaPlot. Mean values and standard deviations were calculated from experiments performed in triplicate.
To prepare a Hedgehog-targeting cyclopeptibody, a Shh-binding cyclic peptide previously developed via affinity maturation of a HHIP loop 2 mimic (Owens A E et al., 2017, J. Am. Chem. Soc., 139:12559-12568) was genetically fused to the Fc domain of human IgG1 via a spacer (Entry 5, Table 1). The resulting cyclopeptibody (called L2-m5-Tras-Fc) was expressed, purified, and characterized as described in Example 4. […]

T1 sequence (P06756 31-1048, chain 1 of 2): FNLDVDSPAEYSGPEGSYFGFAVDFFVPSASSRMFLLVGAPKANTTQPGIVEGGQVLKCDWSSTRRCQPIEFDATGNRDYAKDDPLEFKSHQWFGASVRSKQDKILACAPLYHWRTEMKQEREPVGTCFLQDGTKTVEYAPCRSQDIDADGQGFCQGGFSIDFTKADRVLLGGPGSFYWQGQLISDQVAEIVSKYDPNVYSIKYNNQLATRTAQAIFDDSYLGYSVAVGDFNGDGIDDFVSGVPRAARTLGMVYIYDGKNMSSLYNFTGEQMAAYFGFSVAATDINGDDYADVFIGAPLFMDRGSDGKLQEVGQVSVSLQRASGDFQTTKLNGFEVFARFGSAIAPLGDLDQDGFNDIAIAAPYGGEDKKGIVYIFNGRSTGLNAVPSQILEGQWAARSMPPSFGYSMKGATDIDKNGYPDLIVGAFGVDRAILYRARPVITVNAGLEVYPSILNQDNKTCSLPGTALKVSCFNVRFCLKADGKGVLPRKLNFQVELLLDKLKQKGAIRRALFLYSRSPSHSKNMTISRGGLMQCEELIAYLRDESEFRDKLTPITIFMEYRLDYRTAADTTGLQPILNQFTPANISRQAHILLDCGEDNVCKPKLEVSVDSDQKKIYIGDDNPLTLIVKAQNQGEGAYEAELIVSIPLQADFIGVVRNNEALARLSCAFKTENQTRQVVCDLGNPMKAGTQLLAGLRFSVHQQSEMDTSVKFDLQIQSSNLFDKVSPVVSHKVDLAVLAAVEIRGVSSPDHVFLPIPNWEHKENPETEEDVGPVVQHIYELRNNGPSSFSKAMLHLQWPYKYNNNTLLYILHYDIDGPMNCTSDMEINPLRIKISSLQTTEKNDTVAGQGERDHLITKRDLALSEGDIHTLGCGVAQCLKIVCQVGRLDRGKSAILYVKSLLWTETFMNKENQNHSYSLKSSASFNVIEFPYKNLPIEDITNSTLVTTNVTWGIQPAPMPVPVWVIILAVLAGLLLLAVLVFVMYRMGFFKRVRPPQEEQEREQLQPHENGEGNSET
T1 sequence (P05106 27-788, chain 2 of 2): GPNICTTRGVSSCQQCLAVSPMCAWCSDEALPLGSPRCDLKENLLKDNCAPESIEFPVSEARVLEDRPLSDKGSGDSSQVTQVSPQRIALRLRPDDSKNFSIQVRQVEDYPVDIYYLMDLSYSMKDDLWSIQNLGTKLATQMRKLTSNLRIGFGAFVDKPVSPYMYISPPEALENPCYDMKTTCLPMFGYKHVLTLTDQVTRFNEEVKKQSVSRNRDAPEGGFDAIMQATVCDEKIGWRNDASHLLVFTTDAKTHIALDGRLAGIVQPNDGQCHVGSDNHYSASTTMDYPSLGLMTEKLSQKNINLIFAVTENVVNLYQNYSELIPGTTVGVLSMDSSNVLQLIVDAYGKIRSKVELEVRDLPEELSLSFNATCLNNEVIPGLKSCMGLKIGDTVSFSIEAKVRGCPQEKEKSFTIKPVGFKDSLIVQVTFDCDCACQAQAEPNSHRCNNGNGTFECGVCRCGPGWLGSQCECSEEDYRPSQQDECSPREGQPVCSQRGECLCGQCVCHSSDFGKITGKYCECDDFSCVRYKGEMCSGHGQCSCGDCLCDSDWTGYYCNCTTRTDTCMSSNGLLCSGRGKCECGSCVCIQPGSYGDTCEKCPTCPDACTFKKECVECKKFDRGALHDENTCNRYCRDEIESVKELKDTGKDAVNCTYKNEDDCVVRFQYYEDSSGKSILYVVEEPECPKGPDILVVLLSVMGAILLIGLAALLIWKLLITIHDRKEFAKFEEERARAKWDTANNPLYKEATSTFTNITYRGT

Row | Binder | binding result [1] | Kd [2] [nM] | fold improved affinity against the same cyclic peptide fused to CBD [3] [fold]
1 | DYKDDDDKGSGSCRDRGDY[pCaaF]QQQQQQIEGR-{Fc-H6} (Fc fusion, thioether 13-20; also: dimeric through the Fc, Integrin-targeting cyclopeptibody; dimeric through the human IgG1 Fc; also called cRGD5R (pCaaF)-Tras-Fc) [RGD5R (pCaaF)-Tras-Fc] | binds |  | 
2 | DYKDDDDKGSGSTLSW[O2beY]EAMDMCTSSQQQQQQ-{Fc-H6} (Fc fusion, thioether 17-23; also: dimeric through the Fc, Cyclic peptide fused through a (Gln)6 spacer to human IgG1 Fc; dimeric through the Fc; made in E. coli; also called FLAG-(GS)2-TLSWZEAMDMCTSS-(Q)6-(Fc)^1-H6) [L2-m5-Tras-Fc] |  | 7 | > 55
